In the supplement of paper PMC9112550, “Optimization of the antimicrobial peptide Bac7 by deep mutational scanning” (BMC Biology, 2022):

system: Escherichia coli TOP10; assay: shrunken log2 fold change of peptide-encoding DNA abundance (4.5 h post-induction vs induction); higher = less antimicrobial activity (less host growth inhibition); settings: time post-induction: 4.5 h; library: site-saturation at positions 5, 18, 19, 20
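Further: peptides expressed intracellularly from a pBAD plasmid library in pooled LB shake-flask culture, induced with 0.3% L-arabinose, DNA abundance read by NGS, three biological replicates, DESeq2 with apeglm shrinkage.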

| Sequence | shrunken log2 fold change |
| --- | --- |
| RRIRTRPPRLPRPRPRPNVYPRP | -0.683 |
| RRIRTRPPRLPRPRPRPNWEPRP | 0.00854 |
| RRIRTRPPRLPRPRPRPNWKPRP | -0.0427 |
| RRIRTRPPRLPRPRPRPNYGPRP | -0.363 |
| RRIRTRPPRLPRPRPRPNYKPRP | -0.823 |
| RRIRTRPPRLPRPRPRPNYNPRP | -0.831 |
| RRIRTRPPRLPRPRPRPNYWPRP | -0.208 |
| RRIRTRPPRLPRPRPRPPAYPRP | -0.0816 |
| RRIRTRPPRLPRPRPRPPCDPRP | 0.0499 |
| RRIRTRPPRLPRPRPRPPCEPRP | 0.0977 |
| RRIRTRPPRLPRPRPRPPCMPRP | 0.0978 |
| RRIRTRPPRLPRPRPRPPCPPRP | 0.15 |
| RRIRTRPPRLPRPRPRPPDAPRP | 0.232 |
| RRIRTRPPRLPRPRPRPPDGPRP | -0.0813 |
| RRIRTRPPRLPRPRPRPPERPRP | 0.351 |
| RRIRTRPPRLPRPRPRPPGLPRP | 1.11 |
| RRIRTRPPRLPRPRPRPPIEPRP | -0.0275 |
| RRIRTRPPRLPRPRPRPPKRPRP | 0.302 |
| RRIRTRPPRLPRPRPRPPKVPRP | 0.286 |
| RRIRTRPPRLPRPRPRPPLCPRP | 0.0694 |
| RRIRTRPPRLPRPRPRPPLEPRP | 0.531 |
| RRIRTRPPRLPRPRPRPPLFPRP | 0.482 |

| Sequence | shrunken log2 fold change |
| --- | --- |
| RRIRTRPPRLPRPRPRPPLGPRP | 0.328 |
| RRIRTRPPRLPRPRPRPPLIPRP | 0.0432 |
| RRIRTRPPRLPRPRPRPPLLPRP | 0.172 |
| RRIRTRPPRLPRPRPRPPLNPRP | -0.183 |
| RRIRTRPPRLPRPRPRPPLYPRP | -0.12 |
| RRIRTRPPRLPRPRPRPPMKPRP | -0.112 |
| RRIRTRPPRLPRPRPRPPNAPRP | 0.535 |
| RRIRTRPPRLPRPRPRPPNGPRP | 0.104 |
| RRIRTRPPRLPRPRPRPPNMPRP | -0.203 |
| RRIRTRPPRLPRPRPRPPPNPRP | 1.22 |
| RRIRTRPPRLPRPRPRPPPWPRP | 0.614 |
| RRIRTRPPRLPRPRPRPPQHPRP | 0.22 |
| RRIRTRPPRLPRPRPRPPRDPRP | 0.4 |
| RRIRTRPPRLPRPRPRPPRWPRP | 0.689 |
| RRIRTRPPRLPRPRPRPPTHPRP | 0.176 |
| RRIRTRPPRLPRPRPRPPVYPRP | -0.0771 |
| RRIRTRPPRLPRPRPRPPWEPRP | 0.506 |
| RRIRTRPPRLPRPRPRPPWHPRP | 0.118 |
| RRIRTRPPRLPRPRPRPPWIPRP | 0.161 |
| RRIRTRPPRLPRPRPRPPWPPRP | 0.356 |
| RRIRTRPPRLPRPRPRPPWVPRP | 0.128 |
| RRIRTRPPRLPRPRPRPQACPRP | -0.0237 |

| Sequence | shrunken log2 fold change |
| --- | --- |
| RRIRTRPPRLPRPRPRPQAWPRP | 4.37 |
| RRIRTRPPRLPRPRPRPQDIPRP | -0.0501 |
| RRIRTRPPRLPRPRPRPQDKPRP | -0.658 |
| RRIRTRPPRLPRPRPRPQDPPRP | 0.167 |
| RRIRTRPPRLPRPRPRPQDTPRP | -0.284 |
| RRIRTRPPRLPRPRPRPQFDPRP | -0.652 |
| RRIRTRPPRLPRPRPRPQGDPRP | -0.0192 |
| RRIRTRPPRLPRPRPRPQGLPRP | -0.0814 |
| RRIRTRPPRLPRPRPRPQGYPRP | -0.943 |
| RRIRTRPPRLPRPRPRPQHAPRP | -0.0164 |
| RRIRTRPPRLPRPRPRPQHTPRP | -0.733 |
| RRIRTRPPRLPRPRPRPQIVPRP | 0.0532 |
| RRIRTRPPRLPRPRPRPQLCPRP | -0.0792 |
| RRIRTRPPRLPRPRPRPQLDPRP | -0.0457 |
| RRIRTRPPRLPRPRPRPQLPPRP | 0.107 |
| RRIRTRPPRLPRPRPRPQLWPRP | -0.13 |
| RRIRTRPPRLPRPRPRPQNPPRP | -0.148 |
| RRIRTRPPRLPRPRPRPQNYPRP | -0.311 |
| RRIRTRPPRLPRPRPRPQPWPRP | 0.314 |
| RRIRTRPPRLPRPRPRPQQLPRP | 1.75 |
| RRIRTRPPRLPRPRPRPQRCPRP | 0.00192 |
| RRIRTRPPRLPRPRPRPQTPPRP | 0.25 |

| Sequence | shrunken log2 fold change |
| --- | --- |
| RRIRTRPPRLPRPRPRPQVRPRP | 0.0794 |
| RRIRTRPPRLPRPRPRPQWVPRP | 0.143 |
| RRIRTRPPRLPRPRPRPRAEPRP | 0.28 |
| RRIRTRPPRLPRPRPRPRAHPRP | -0.186 |
| RRIRTRPPRLPRPRPRPRAMPRP | 0.41 |
| RRIRTRPPRLPRPRPRPRAQPRP | 0.461 |
| RRIRTRPPRLPRPRPRPRDCPRP | 0.057 |
| RRIRTRPPRLPRPRPRPRDDPRP | 0.107 |
| RRIRTRPPRLPRPRPRPRETPRP | 0.511 |
| RRIRTRPPRLPRPRPRPRFFPRP | 0.0438 |
| RRIRTRPPRLPRPRPRPRFNPRP | -0.286 |
| RRIRTRPPRLPRPRPRPRGKPRP | 0.259 |
| RRIRTRPPRLPRPRPRPRGYPRP | 0.205 |
| RRIRTRPPRLPRPRPRPRHMPRP | -0.115 |
| RRIRTRPPRLPRPRPRPRHSPRP | -0.106 |
| RRIRTRPPRLPRPRPRPRINPRP | -0.506 |
| RRIRTRPPRLPRPRPRPRIPPRP | 0.00212 |
| RRIRTRPPRLPRPRPRPRKEPRP | 0.102 |
| RRIRTRPPRLPRPRPRPRKRPRP | 0.152 |
| RRIRTRPPRLPRPRPRPRLEPRP | 0.32 |
| RRIRTRPPRLPRPRPRPRLTPRP | -0.00933 |
| RRIRTRPPRLPRPRPRPRMEPRP | -0.0325 |

| Sequence | shrunken log2 fold change |
| --- | --- |
| RRIRTRPPRLPRPRPRPRMIPRP | 0.113 |
| RRIRTRPPRLPRPRPRPRMYPRP | 0.0541 |
| RRIRTRPPRLPRPRPRPRNPPRP | 0.000872 |
| RRIRTRPPRLPRPRPRPRRDPRP | 0.394 |
| RRIRTRPPRLPRPRPRPRSFPRP | -0.0927 |
| RRIRTRPPRLPRPRPRPRSQPRP | 1.58 |
| RRIRTRPPRLPRPRPRPRSRPRP | 0.143 |
| RRIRTRPPRLPRPRPRPRWAPRP | 0.541 |
| RRIRTRPPRLPRPRPRPRWKPRP | 0.0709 |
| RRIRTRPPRLPRPRPRPRWNPRP | 0.969 |
| RRIRTRPPRLPRPRPRPRYNPRP | -0.712 |
| RRIRTRPPRLPRPRPRPRYPPRP | -0.516 |
| RRIRTRPPRLPRPRPRPSASPRP | -0.0732 |
| RRIRTRPPRLPRPRPRPSCPPRP | -0.444 |
| RRIRTRPPRLPRPRPRPSDTPRP | -0.212 |
| RRIRTRPPRLPRPRPRPSEAPRP | 0.0182 |
| RRIRTRPPRLPRPRPRPSEMPRP | -0.00622 |
| RRIRTRPPRLPRPRPRPSFHPRP | -0.772 |
| RRIRTRPPRLPRPRPRPSFKPRP | -0.465 |
| RRIRTRPPRLPRPRPRPSGGPRP | 0.863 |
| RRIRTRPPRLPRPRPRPSGWPRP | -0.00504 |
